Data taken from IntAct's records for PubMed 24500646.

B1: DDB1- and CUL4-associated factor 8 (Homo sapiens), Q5TAQ9 (parent)
chain: MSSKGSSTDGRTDLANGSLSSSPEEMSGAEEGRETSSGIEVEASDLSLSLTGDDGGPNRTSTESRGTDTESSGEDKDSDSMEDTGHYSINDENRVHDRSEEEEEEEEEEEEEQPRRRVQRKRANRDQDSSDDERALEDWVSSETSALPRPRWQALPALRERELGSSARFVYEACGARVFVQRFRLQHGLEGHTGCVNTLHFNQRGTWLASGSDDLKVVVWDWVRRQPVLDFESGHKSNVFQAKFLPNSGDSTLAMCARDGQVRVAELSATQCCKNTKRVAQHKGASHKLALEPDSPCTFLSAGEDAVVFTIDLRQDRPASKLVVTKEKEKKVGLYTIYVNPANTHQFAVGGRDQFVRIYDQRKIDENENNGVLKKFCPHHLVNSESKANITCLVYSHDGTELLASYNDEDIYLFNSSHSDGAQYVKRYKGHRNNATVKGVNFYGPKSEFVVSGSDCGHIFLWEKSSCQIIQFMEGDKGGVVNCLEPHPHLPVLATSGLDHDVKIWAPTAEASTELTGLKDVIKKNKRERDEDSLHQTDLFDSHMLWFLMHHLRQRRHHRRWREPGVGATDADSDESPSSSDTSDEEEGPDRVQCMPS

Variants of: B1
Details: with ddb1_human DDB1, Q16531
Chain of ddb1_human DDB1, Q16531 (Q16531 whole entry): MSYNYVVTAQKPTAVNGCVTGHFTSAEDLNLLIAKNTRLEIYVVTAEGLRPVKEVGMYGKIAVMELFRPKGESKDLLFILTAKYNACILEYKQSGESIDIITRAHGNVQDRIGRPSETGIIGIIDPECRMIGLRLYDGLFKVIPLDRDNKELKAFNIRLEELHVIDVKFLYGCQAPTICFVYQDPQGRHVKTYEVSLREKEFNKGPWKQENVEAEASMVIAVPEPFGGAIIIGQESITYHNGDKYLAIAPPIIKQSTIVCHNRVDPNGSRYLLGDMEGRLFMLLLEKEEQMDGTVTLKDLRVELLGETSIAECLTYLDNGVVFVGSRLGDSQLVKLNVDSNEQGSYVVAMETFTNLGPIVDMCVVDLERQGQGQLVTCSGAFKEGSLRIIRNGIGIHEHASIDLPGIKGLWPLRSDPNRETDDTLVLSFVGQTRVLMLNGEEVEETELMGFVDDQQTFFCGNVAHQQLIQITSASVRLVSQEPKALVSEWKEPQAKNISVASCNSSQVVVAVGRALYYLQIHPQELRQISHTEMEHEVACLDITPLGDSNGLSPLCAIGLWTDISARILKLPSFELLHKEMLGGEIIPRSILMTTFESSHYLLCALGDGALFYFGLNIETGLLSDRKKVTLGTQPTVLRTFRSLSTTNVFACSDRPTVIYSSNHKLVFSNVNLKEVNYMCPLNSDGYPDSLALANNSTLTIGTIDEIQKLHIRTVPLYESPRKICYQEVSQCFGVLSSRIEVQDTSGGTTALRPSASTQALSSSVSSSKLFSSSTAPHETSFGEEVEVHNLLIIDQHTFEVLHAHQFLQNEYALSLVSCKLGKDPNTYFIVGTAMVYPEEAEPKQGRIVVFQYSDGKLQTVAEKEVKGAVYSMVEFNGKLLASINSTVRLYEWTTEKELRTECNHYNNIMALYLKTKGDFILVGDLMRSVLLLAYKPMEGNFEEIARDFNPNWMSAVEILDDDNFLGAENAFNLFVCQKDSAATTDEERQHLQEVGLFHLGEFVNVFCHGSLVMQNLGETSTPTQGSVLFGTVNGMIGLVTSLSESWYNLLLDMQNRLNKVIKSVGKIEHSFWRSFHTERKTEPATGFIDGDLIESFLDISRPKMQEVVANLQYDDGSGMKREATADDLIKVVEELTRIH

| Variant | effect of a mutation on the interaction |
| --- | --- |
| R317C | decreasing interaction strength |
| R314H | decreasing interaction strength |
